Data: patent US20260234738A1 (Regeneron, published 2026)

Experiments:
[1] = target: SARS-CoV-2 Spike Protein (RBD) (R319-F541).hFc (SARS-CoV-2); assay: Luminex beads, supernatant
[2] = target: SARS-CoV-2 Spike Protein (RBD) (R319-F541).mFc (SARS-CoV-2); assay: Luminex beads, supernatant
[3] = target: Bt-SARS-CoV-2 Spike Protein (RBD) (R319-F541).mFc (SARS-CoV-2); assay: Luminex beads, supernatant
[4] = target: SARS-COV-2 spike protein receptor binding domain (amino acids Arg319 to Phe541) expressed with the F (SARS-CoV-2)

B1: mAb10989 (antibody, V domains shown)
VH: QVQLVQSGAEVKKPGASVKVSCKASGYIFTGYYMHWVRQAPGQGLEWMGWINPNSGGANYAQKFQGRVTLTRDTSITTVYMELSRLRFDDTAVYYCARGSRYDWNQNNWFDPWGQGTLVTVSS
VL: QSALTQPASVSGSPGQSITISCTGTSSDVGTYNYVSWYQQHPGKAPKLMIFDVSNRPSGVSDRFSGSKSGNTASLTISGLQAEDEADYYCSSFTTSSTVVFGGGTKLTVLG
[1]
  MFI: 22400 MFI
[2]
  MFI: 19600 MFI
[3]
  MFI: 11200 MFI

B2: mAb11004 (antibody, V domains shown)
VH: QVQLVESGGGVVQPGRSLRLSCVASGFTFSIYGMDWVRQAPGKGLEWVAVISYDGSNKYYADSVKGRFTISRDNSKNTLYLQMNSLRPEDTAVYYCAKDREAAADAFDIWGQGTMVTVSS
VL: DIQMTQSPSSVSASVGDRVTITCRASQGISSWLAWYQQKPGKAPKLLIYAASSLHSGVPSRFSGSGSGTDFTLTISSLQPEDFATYYCQQANSFRLTFGGGTKVEIK
[4]
  Kd: 0.191 nM
  koff: 6.63e-05 s⁻¹
  kon: 346000 M⁻¹ s⁻¹
  t½: 2.9 h

B3: mAb10938 (antibody, V domains shown)
VH: EVQLVESGGGLVQPGGSLRLSCAVSGFTVSSNYMSWVRQAPGKGLEWVSLIYSGGSTFYADSVKGRFTISRHNSKNTLYLQMNSLRAEDTAVYYCAREGGYSYDYNYWGQGTLVTVSS
VL: DIQMTQSPSSLSASVGDRVTITCQASQDIRNYLNWYQQKPGKAPKLLIYDASNLETGVPSRFSGIGSGTDFTFTISSLQPEDIATYYCQQYDNLPITFGQGTRLEIKR
[1]
  MFI: 29600 MFI
[2]
  MFI: 30500 MFI
[3]
  MFI: 17200 MFI

B4: mAb10955 (antibody, V domains shown)
VH: EVQLVESGGGLVQPGGSLRVSCAASGFTVSRNYMSWVRQAPGKGLEWVSVIYSGGSTFYADSVKGRFTISRDNSKNTLYLQMNSLRAEDTAIYYCARYIPRFDPWGQGTLVTVSS
VL: DIQMTQSPSSLSASVGDRVTITCQASQDISNYLNWFQQKPGRAPKLLIYDASNLETGVPSRFSGSGSGTDFTFTISSLQPEDIATYYCQQYDNLPITFGQGTRLEIKR
[1]
  MFI: 31200 MFI
[2]
  MFI: 30800 MFI
[3]
  MFI: 16800 MFI

B5: mAb10967 (antibody, V domains shown)
VH: EVQLVESGGGLVQPGGSLRLSCAASGFTVSSNYMSWVRQAPGKGLEWVSVIYPGGSTFYADSVKGRFTISRDNSKNTLYLQMNSLRAEDTAVYYCARDQRDFAWGQGTLVTVSS
VL: DIQMTQSPSSLSASVGDRVTITCQASQDISNYLNWYQQKPGKAPKLLIYDASNLETGVPSRFSGSGSGTDFTFTISGLQPEDIATYYCQQYDNLPPTFGQGTRLEIKR
[1]
  MFI: 28700 MFI
[2]
  MFI: 29600 MFI
[3]
  MFI: 16800 MFI

B6: mAb10954 (antibody, V domains shown)
VH: EVQLVESGGGLVQPGGSLRLSCAASGITVSSNYMSWVRQAPGKGLEWVSLIYSGGSTYYADSVKGRFTISRDNSKNTLYLQMNSLRVEDTAVYYCARDHGMAAAGYNYWGQGTLVTVSS
VL: DIQMTQSPSSLSASVGDRVTITCQASQDINKYLNWYQQKPGKAPKLLIYDASNLETGVPSRFSGSGSGTDFTFTINSLQPEDFATYFCQQYDNLPPAFGQGTKVEIKR
[1]
  MFI: 31800 MFI
[2]
  MFI: 31300 MFI
[3]
  MFI: 18400 MFI

B7: mAb10971 (antibody, V domains shown)
VH: EVQLVESGGGLIQPGGSLRLSCAASGVTVSSNYMSWVRQAPGKGLEWVSVIYSGGSTFYSDSVKGRFSISRDNSKNTLYLQMNSLRAEDTAVYYCARDLYYYGMDVWGQGTTVTVSS
VL: DIQLTQSPSFLSASVGDRVTITCRASQGISTYLAWYQQKPGKAPKLLIYAASTLQSGVPSRFSGSGSGTEFTLTISSLQPEDFATYYCQQLDSYPGLTFGGGTKVEIKR
[1]
  MFI: 30000 MFI
[2]
  MFI: 28700 MFI
[3]
  MFI: 16700 MFI

B8: mAb10957 (antibody, V domains shown)
VH: EVQLVESGGGLVQPGGSLRLSCAASGVTVSSNYMSWVRQAPGKGLEWVSVIYSGGSTFYADSVKGRFTISRDNSKNTLFLQMNSLRIEDTAVYYCARDLGPYGMDVWGQGTTVTVSS
VL: DIQLTQSPSFLSASVGDRVTITCRASQGISSYLAWYQQKPGKAPKLLIYAASTLQSGVPSRFSGSGSGTQFILTISSLQPEDFATYYCQQLNSYPGFTFGPGTKVDIKR
[1]
  MFI: 22600 MFI
[2]
  MFI: 18700 MFI
[3]
  MFI: 10600 MFI

B9: mAb10966 (antibody, V domains shown)
VH: EVQLVESGGGLVQPGGSLRLSCAASGLTVSSNYMSWVRQAPGKGLEWVSVIYSGGSTFYADSVKGRFTISRDNSKNTLYLQMNSLRPEDTAVYYCAREGRIAATGYGMDVWGQGTTVTVSS
VL: not shown
[1]
  MFI: 30800 MFI
[2]
  MFI: 30400 MFI
[3]
  MFI: 17900 MFI

B10: mAb11006 (antibody, V domains shown)
VH: EVQLVESGGGLVQPGGSLRLSCAASGFIVSRNYMSWVRQAPGKGLEWVSVIYSGGSTFYADSVKGRFTISRHNSKNTLYLQMNSLKAEDTAVYYCARELRGYFDYWGQGTLVTVSS
VL: DIQLTQSPSFLSASVGDRVTITCWASQGISSYLAWYQQKPGKAPKLLIYAASTLQSGVPSRFSGSGSGTEFTLTISSLQPEDFATYYCQLLNSYPYTFGQGTKLEIK
[4]
  Kd: ≤ 0.0532 nM
  t½: ≥ 19.2 h

B11: mAb11008 (antibody, V domains shown)
VH: EVQLVESGGGLVQPGGSLRLSCAASGFTVSSNYMTWVRQAPGKGLEWVSVIYSGGSTFYADSVKGRFTISRHNSENTLYLQMNSLRAEDTAVYYCARDLAAAGTDYWGQGALVTVSS
VL: DIQLTQSPSFLSASVGDRVTITCWASQGISSYLAWYQQKPGKAPKLLIYAASTLQSGVPSRFSGSGSGTEFTLTISSLQPDDFATYYCQHLNSYLYTFGQGTKLEIK
[4]
  Kd: 0.715 nM
  koff: 0.000115 s⁻¹
  kon: 161000 M⁻¹ s⁻¹
  t½: 1.67 h

B12: mAb10965 (antibody, V domains shown)
VH: EVQLVESGGGLIQPGGSLRLSCAASVFTVSYNYMSWVRQAPGKGLEWVSVIYSGGSTYYADSVKGRFTISRDNSKNTLYLQMNSLRAEDTAVYYCARALPGWGGSFEYFDYWGQGTLVTVSS
VL: not shown
[1]
  MFI: 29600 MFI
[2]
  MFI: 27100 MFI
[3]
  MFI: 13700 MFI

B13: mAb10982 (antibody, V domains shown)
VH: EVQLVESGGGLVQPGGSLRLSCAASGLTVSSNYMSWVRQAPGKGLEWVSVIYSGGTTYYADSVKGRFTISRHNSKNTLSLQMNSLRAEDTAVYYCARGEGANYYGMDVWGQGTTVTVSS
VL: QSVLTQPPSVSGAPGQRVTISCTGSSSNIGTGYDVHWYQQLPGTAPKLLIYGNSNRPSGVPDRFSGSKSGTSASLAITGLQAEDEADYYCQSYDSSLSGYVVFGGGTKLTVLG
[1]
  MFI: 23000 MFI
[2]
  MFI: 23300 MFI
[3]
  MFI: 12300 MFI

B14: mAb10985 (antibody, V domains shown)
VH: EVQLVESGGGLVQPGRSLRLSCAASGFTFDDYAMHWVRQAPGKGLEWVSGISWNRGSIGYADSVKGRFTISRDNAKNSLYLQMSSLRAEDTALYYCAKDGERWDSVVVPSARNGMDVWGQGTTVTVSS
VL: QSVLTQPPSVSGAPGQRVTISCTGSSSNIGAGYDVHWYQQLPGTAPKLLIYGNSNRPSGVPDRFSGSKSGTSASLAITGLQAEDEADYYCQSYDSSLSGSYVFGTGTKVTVLG
[1]
  MFI: 31100 MFI
[2]
  MFI: 29400 MFI
[3]
  MFI: 15500 MFI

B15: mAb10984 (antibody, V domains shown)
VH: EVQLVESGGGLVQPGGSLRLSCAASGLTVNRNYMSWVRQAPGKGLEWVSLIYSGGSTYYADSVKGRFTISRDNSKNTLYLQMNSLRLEDTAVYYCARGELGIPYGMDVWGQGTTVTVSS
VL: QSVLTQPPSVSAAPGQKVTISCSGSSSNIGNNYVSWYQQLPGTAPKLLIYDNNKRPSGIPDRFSGSKSGTSATLGITGLQTGDEADYYCGTWDSSLSAGVFGGGTKLTVLG
[1]
  MFI: 28400 MFI
[2]
  MFI: 28400 MFI
[3]
  MFI: 17100 MFI

B16: mAb10939 (antibody, V domains shown)
VH: EVQLVESGGGLVQPGGSLRLSCAASGLTVSSNYMNWVRQVPGKGLEWVSVIYSGGSKFYVDSVKGRFTISRHNSKNTLYLQMNSLRPEDTAVYYCTRDAQYYGMDVWGQGTTVTVSS
VL: DIQMTQSPSSLSASVGDRVTITCRASQSISTYLHWYQQKPGEAPKLLIYAASSLQSGVPSRFSGSGSGTDFTLTISSLQPEDFATYYCQQSYSTPPEIFGQGTKLEIKR
[1]
  MFI: 32900 MFI
[2]
  MFI: 33900 MFI
[3]
  MFI: 18700 MFI

B17: mAb10956 (antibody, V domains shown)
VH: EVQLVESGGGLVQPGGSLRLSCAASGLTVSSNYMSWVRQAPGKGLEWVSVIYSGGSTFYADSVKGRFTISRDNSKNTLYLQMNSLRAEDTAVYYCARDLIKYGMDVWGQGTTVTVSS
VL: not shown
[1]
  MFI: 30200 MFI
[2]
  MFI: 28300 MFI
[3]
  MFI: 12900 MFI

B18: mAb10930 (antibody, V domains shown)
VH: EVQLVESGGGLVQPGRSLRLSCAASGFTFDDYAMYWVRQAPGKGLEWVSGISWNSGSIGYADSVKGRFTISRDNAKNSLYLQMNSLRAADTALYYCAKDKDWNSRGYYYYGMDVWGQGTTVTVSS
VL: not shown
[1]
  MFI: 28900 MFI
[2]
  MFI: 28600 MFI
[3]
  MFI: 16600 MFI

B19: mAb10964 (antibody, V domains shown)
VH: QVQLQESGPGLVKPSETLSLTCTVSGGSINNYYWIWIRQPPGKGLEWIGYIYHSGSTNYNPSLKSRVTISVDTSKNQFSLKVSSVTAADTAVYYCANMVRGVYEDDYWGQGTLVTVSS
VL: DIQMTQSPSSLSASVGDRVTITCRASQSISNYLNWYQQKPGKAPKLLIFAASSLRSGVPSRFSGSGSGTDFTLTISSLHPEDFATYYCQQNYNTPLTFGPGTKVDIKR
[1]
  MFI: 33100 MFI
[2]
  MFI: 32400 MFI
[3]
  MFI: 19200 MFI

B20: mAb10998 (antibody, V domains shown)
VH: EVQLVESGGGLVHPGGSLRLSCAASGLTVSSNYMSWVRQAPGKGLEWVSVIYSGGSTYYADSVKGRFTISRHNSKNTLFLQMNSLRAEDTAVYYCARDRPITGTTLDVWGQGTTVTVSS
VL: DIQMTQSPSSLFASVGDRVTITCRASQSISSYLNWYQQKPGKAPKLLIYAASSLQSGVPSRFSGSGSGTDFTLTISSLQPEDFAFYYCQQTYSTPPITFGQGTRLEIK
[4]
  Kd: 1.58 nM
  koff: 0.000521 s⁻¹
  kon: 330000 M⁻¹ s⁻¹
  t½: 0.37 h

B21: mAb11010 (antibody, V domains shown)
VH: QVQLVESGGGVVQPGRSLRLSCAASGFTFSSYGMHWVRQAPGKGLEWVAVISYDGSYKYYADSVKGRFTISRDNSKNTLYLQMNSLRAEDTAVYYCAIDGGTVTTIFDYWGQGTLVTVSS
VL: not shown
[4]
  Kd: ≤ 0.0236 nM
  t½: ≥ 19.2 h
